Key:
Assay in all cases: holdup assay
Design in all cases: key: below the threshold = too weak to quantify, mostly under pKd 3.1 to 4
AHNAK1, Q09666 = target: AHNAK1, Q09666
ARHGAP21, Q5T5U3 = target: T1, ARHGAP21, Q5T5U3
T1 sequence (Q5T5U3 45-169, limits assumed, looked up): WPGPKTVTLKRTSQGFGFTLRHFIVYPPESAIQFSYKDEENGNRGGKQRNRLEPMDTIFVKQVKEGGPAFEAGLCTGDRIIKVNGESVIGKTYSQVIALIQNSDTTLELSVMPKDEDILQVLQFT

DFNB31_1, Q9P202 = target: T2, DFNB31_1, Q9P202
T2 sequence (Q9P202 135-233, limits assumed, looked up): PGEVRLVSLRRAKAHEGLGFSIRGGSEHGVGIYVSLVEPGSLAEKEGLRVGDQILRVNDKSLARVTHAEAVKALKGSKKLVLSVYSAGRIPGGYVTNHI

DLG2_2, Q15700 = target: DLG2_2, Q15700
DLG3_2, Q92796 = target: T3, DLG3_2, Q92796
T3 sequence (Q92796 221-321, limits assumed, looked up): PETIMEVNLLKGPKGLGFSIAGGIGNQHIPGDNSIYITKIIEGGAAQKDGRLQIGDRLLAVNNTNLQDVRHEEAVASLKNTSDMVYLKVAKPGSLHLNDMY

DLG3_3, Q92796 = target: T4, DLG3_3, Q92796
T4 sequence (Q92796 374-475, limits assumed, looked up): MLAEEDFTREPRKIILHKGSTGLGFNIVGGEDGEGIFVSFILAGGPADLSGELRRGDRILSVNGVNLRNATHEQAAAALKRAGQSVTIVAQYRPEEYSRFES

DLG4_2, P78352 = target: DLG4_2, P78352
FRMPD3, Q5JV73 = target: FRMPD3, Q5JV73
GRASP, Q7Z6J2 = target: GRASP, Q7Z6J2
Inadl_6, Q8NI35 = target: Inadl_6, Q8NI35
LNX1_2, Q8TBB1 = target: LNX1_2, Q8TBB1
LRRC7, Q96NW7 = target: T5, LRRC7, Q96NW7
T5 sequence (Q96NW7 1440-1537, limits assumed, looked up): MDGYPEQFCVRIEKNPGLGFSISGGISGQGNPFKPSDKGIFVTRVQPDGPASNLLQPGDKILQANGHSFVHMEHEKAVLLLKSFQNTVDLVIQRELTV

MPP2, Q14168 = target: T6, MPP2, Q14168
T6 sequence (Q14168 180-250, limits assumed, looked up): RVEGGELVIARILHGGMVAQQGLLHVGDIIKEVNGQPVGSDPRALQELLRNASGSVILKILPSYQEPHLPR

NHERF2_2, Q15599 = target: NHERF2_2, Q15599
NHERF4_2, Q86UT5 = target: NHERF4_2, Q86UT5
PDZRN4_1, Q6ZMN7 = target: PDZRN4_1, Q6ZMN7
PTPN13_1, Q12923 = target: T7, PTPN13_1, Q12923
T7 sequence (Q12923 1088-1188, limits assumed, looked up): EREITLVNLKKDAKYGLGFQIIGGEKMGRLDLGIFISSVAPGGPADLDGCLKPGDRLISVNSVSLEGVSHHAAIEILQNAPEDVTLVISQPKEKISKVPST

PTPN3, P26045 = target: PTPN3, P26045
SCRIB_1, Q14160 = target: SCRIB_1, Q14160
SCRIB_2, Q14160 = target: SCRIB_2, Q14160
SCRIB_3, Q14160 = target: SCRIB_3, Q14160
SHANK1, Q9Y566 = target: T8, SHANK1, Q9Y566
T8 sequence (Q9Y566 658-767, limits assumed, looked up): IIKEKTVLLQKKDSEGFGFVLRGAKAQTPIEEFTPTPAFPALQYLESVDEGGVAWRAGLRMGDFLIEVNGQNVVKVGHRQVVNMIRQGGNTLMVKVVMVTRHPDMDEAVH

SIPA1L2, Q9P2F8 = target: T9, SIPA1L2, Q9P2F8
T9 sequence (Q9P2F8 945-1036, limits assumed, looked up): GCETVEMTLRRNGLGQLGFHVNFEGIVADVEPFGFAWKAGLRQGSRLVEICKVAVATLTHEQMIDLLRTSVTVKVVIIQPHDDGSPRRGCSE

SNTG2, Q9NY99 = target: T10, SNTG2, Q9NY99
T10 sequence (Q9NY99 68-166, limits assumed, looked up): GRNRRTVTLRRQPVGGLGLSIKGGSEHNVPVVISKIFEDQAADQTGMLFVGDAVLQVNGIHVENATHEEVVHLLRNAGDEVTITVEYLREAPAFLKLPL

SYNJ2BP, P57105 = target: T11, SYNJ2BP, P57105
T11 sequence (P57105 8-110, limits assumed, looked up): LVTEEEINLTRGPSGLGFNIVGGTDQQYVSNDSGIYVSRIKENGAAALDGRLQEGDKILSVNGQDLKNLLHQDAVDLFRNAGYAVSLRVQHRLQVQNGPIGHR

TJP3_3, O95049 = target: T12, TJP3_3, O95049
T12 sequence (O95049 375-456, limits assumed, looked up): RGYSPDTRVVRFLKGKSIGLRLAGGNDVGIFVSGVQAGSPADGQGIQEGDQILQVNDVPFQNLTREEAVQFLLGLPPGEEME

[1] = plain residues with an end cap or a label only (N-terminal biotin on a linker: ttds)
[2] = plain residues with an end cap or a label only (N-terminal biotin on a linker: none)
[3] = plain residues with an end cap or a label only (N-terminal biotin on a linker: ahx)

Chain of GRASP, Q7Z6J2 (Q7Z6J2 96-193): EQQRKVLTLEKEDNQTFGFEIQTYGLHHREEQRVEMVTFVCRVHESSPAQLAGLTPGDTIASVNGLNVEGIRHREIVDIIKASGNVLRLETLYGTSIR
Chain of AHNAK1, Q09666 (Q09666 4-100): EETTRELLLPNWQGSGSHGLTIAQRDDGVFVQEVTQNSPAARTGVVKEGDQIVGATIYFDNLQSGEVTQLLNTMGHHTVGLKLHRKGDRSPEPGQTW
Chain of DLG2_2, Q15700 (Q15700 189-283): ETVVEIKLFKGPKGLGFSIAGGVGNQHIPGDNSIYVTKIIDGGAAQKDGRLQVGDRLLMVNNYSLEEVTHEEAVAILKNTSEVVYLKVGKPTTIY
Chain of NHERF2_2, Q15599 (Q15599 142-238): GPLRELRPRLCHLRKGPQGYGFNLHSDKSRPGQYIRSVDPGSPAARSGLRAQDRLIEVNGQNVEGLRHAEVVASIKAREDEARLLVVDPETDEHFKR
Chain of PTPN3, P26045 (P26045 505-587): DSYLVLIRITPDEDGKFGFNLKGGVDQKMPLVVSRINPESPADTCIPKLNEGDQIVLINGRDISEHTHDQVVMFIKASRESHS
Chain of SCRIB_1, Q14160 (Q14160 718-814): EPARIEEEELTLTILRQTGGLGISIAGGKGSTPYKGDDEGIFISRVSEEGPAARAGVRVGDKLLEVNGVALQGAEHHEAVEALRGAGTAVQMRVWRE
Chain of LNX1_2, Q8TBB1 (Q8TBB1 371-470): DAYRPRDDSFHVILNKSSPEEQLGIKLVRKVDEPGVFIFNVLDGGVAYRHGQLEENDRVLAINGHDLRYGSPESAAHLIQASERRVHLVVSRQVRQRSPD
Chain of DLG4_2, P78352 (P78352 155-259): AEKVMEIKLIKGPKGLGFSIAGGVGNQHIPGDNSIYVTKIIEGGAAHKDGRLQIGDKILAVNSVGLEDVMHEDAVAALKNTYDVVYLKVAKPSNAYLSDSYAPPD
Chain of PDZRN4_1, Q6ZMN7 (Q6ZMN7 213-318): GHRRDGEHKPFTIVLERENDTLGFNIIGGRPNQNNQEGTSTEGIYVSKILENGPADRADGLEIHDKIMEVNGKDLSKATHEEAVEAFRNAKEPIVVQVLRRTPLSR
Chain of SCRIB_3, Q14160 (Q14160 999-1103): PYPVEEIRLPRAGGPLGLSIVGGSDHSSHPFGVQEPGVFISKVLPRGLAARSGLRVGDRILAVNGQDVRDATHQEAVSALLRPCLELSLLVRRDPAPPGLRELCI
Chain of NHERF4_2, Q86UT5 (Q86UT5 220-308): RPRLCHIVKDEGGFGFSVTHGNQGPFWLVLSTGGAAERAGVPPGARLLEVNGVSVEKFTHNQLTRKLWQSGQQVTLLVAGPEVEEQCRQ
Chain of SCRIB_2, Q14160 (Q14160 857-960): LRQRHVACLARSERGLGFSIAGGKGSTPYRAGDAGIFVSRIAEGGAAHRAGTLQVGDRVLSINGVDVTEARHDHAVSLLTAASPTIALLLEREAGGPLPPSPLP
Chain of Inadl_6, Q8NI35 (Q8NI35 1058-1167): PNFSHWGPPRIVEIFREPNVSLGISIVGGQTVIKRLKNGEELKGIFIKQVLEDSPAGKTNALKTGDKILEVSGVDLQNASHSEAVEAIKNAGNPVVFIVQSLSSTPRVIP
Chain of FRMPD3, Q5JV73 (Q5JV73 12-100): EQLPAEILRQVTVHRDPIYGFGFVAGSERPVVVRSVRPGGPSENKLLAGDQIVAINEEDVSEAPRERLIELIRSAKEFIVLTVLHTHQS

Q: Which pKd (AHNAK1, Q09666; [1]) does the source give for PVRVCEETSL [OTULIN, Q96BN8] here?
A: below the threshold

Q: What about the pKd (ARHGAP21, Q5T5U3; [1]) of the same binder?
A: 4.2

Q: What about the pKd (DFNB31_1, Q9P202; [1]) of the same binder?
A: 4.42

Q: What about the pKd (DLG2_2, Q15700; [1]) of the same binder?
A: 3.87

Q: What about the pKd (DLG3_2, Q92796; [1]) of the same binder?
A: 4.35

Q: What about the pKd (DLG3_3, Q92796; [1]) of the same binder?
A: 4.02

Q: What about the pKd (DLG4_2, P78352; [1]) of the same binder?
A: 4.2

Q: What about the pKd (FRMPD3, Q5JV73; [1]) of the same binder?
A: 3.81

Q: What about the pKd (GRASP, Q7Z6J2; [1]) of the same binder?
A: 4.71

Q: What about the pKd (Inadl_6, Q8NI35; [1]) of the same binder?
A: 4.4

Q: And the pKd (LNX1_2, Q8TBB1; [1])?
A: below the threshold

Q: And the pKd (LRRC7, Q96NW7; [1])?
A: below the threshold

Q: And the pKd (MPP2, Q14168; [1])?
A: below the threshold

Q: What about the pKd (NHERF2_2, Q15599; [1]) of the same binder?
A: 5.21

Q: What about the pKd (NHERF4_2, Q86UT5; [1]) of the same binder?
A: below the threshold

Q: And the pKd (PDZRN4_1, Q6ZMN7; [1])?
A: 5.23

Q: And the pKd (PTPN13_1, Q12923; [1])?
A: below the threshold

Q: And the pKd (PTPN3, P26045; [1])?
A: 5.01

Q: What about the pKd (SCRIB_1, Q14160; [1]) of the same binder?
A: 5.44

Q: And the pKd (SCRIB_2, Q14160; [1])?
A: 4.7

Q: And the pKd (SCRIB_3, Q14160; [1])?
A: 5.64

Q: And the pKd (SHANK1, Q9Y566; [1])?
A: 5.14

Q: What about the pKd (SIPA1L2, Q9P2F8; [1]) of the same binder?
A: below the threshold

Q: What about the pKd (SNTG2, Q9NY99; [1]) of the same binder?
A: 4.63

Q: And the pKd (SYNJ2BP, P57105; [1])?
A: 4.74

Q: What about the pKd (TJP3_3, O95049; [1]) of the same binder?
A: below the threshold

Q: Which results are given for NLNSSRVPDLLV [SARS-CoV2-E, P0DTC4]?
A: pKd (AHNAK1, Q09666; [2]): below the threshold; pKd (ARHGAP21, Q5T5U3; [2]): below the threshold; pKd (DFNB31_1, Q9P202; [2]): below the threshold; pKd (DLG2_2, Q15700; [2]): below the threshold; pKd (DLG3_2, Q92796; [2]): below the threshold; pKd (DLG3_3, Q92796; [2]): below the threshold; pKd (DLG4_2, P78352; [2]): below the threshold; pKd (FRMPD3, Q5JV73; [2]): below the threshold; pKd (GRASP, Q7Z6J2; [2]): below the threshold; pKd (Inadl_6, Q8NI35; [2]): below the threshold; pKd (LNX1_2, Q8TBB1; [2]): 3.81; pKd (LRRC7, Q96NW7; [2]): below the threshold; pKd (MPP2, Q14168; [2]): below the threshold; pKd (NHERF2_2, Q15599; [2]): below the threshold; pKd (NHERF4_2, Q86UT5; [2]): below the threshold; pKd (PDZRN4_1, Q6ZMN7; [2]): below the threshold; pKd (PTPN13_1, Q12923; [2]): below the threshold; pKd (PTPN3, P26045; [2]): below the threshold; pKd (SCRIB_1, Q14160; [2]): below the threshold; pKd (SCRIB_2, Q14160; [2]): below the threshold; pKd (SCRIB_3, Q14160; [2]): below the threshold; pKd (SHANK1, Q9Y566; [2]): below the threshold; pKd (SIPA1L2, Q9P2F8; [2]): below the threshold; pKd (SNTG2, Q9NY99; [2]): below the threshold; pKd (SYNJ2BP, P57105; [2]): below the threshold; pKd (TJP3_3, O95049; [2]): below the threshold

Q: Which results are given for TVICWPGSLV [LNX2, Q8N448]?
A: pKd (AHNAK1, Q09666; [3]): below the threshold; pKd (ARHGAP21, Q5T5U3; [3]): below the threshold; pKd (DFNB31_1, Q9P202; [3]): below the threshold; pKd (DLG2_2, Q15700; [3]): 3.9; pKd (DLG3_2, Q92796; [3]): 4.07; pKd (DLG3_3, Q92796; [3]): 3.95; pKd (DLG4_2, P78352; [3]): 4.36; pKd (FRMPD3, Q5JV73; [3]): below the threshold; pKd (GRASP, Q7Z6J2; [3]): 4.59; pKd (Inadl_6, Q8NI35; [3]): 3.55; pKd (LNX1_2, Q8TBB1; [3]): 3.99; pKd (LRRC7, Q96NW7; [3]): below the threshold; pKd (MPP2, Q14168; [3]): 3.62; pKd (NHERF2_2, Q15599; [3]): below the threshold; pKd (NHERF4_2, Q86UT5; [3]): below the threshold; pKd (PDZRN4_1, Q6ZMN7; [3]): 4.23; pKd (PTPN13_1, Q12923; [3]): below the threshold; pKd (PTPN3, P26045; [3]): 4.23; pKd (SCRIB_1, Q14160; [3]): below the threshold; pKd (SCRIB_2, Q14160; [3]): 3.65; pKd (SCRIB_3, Q14160; [3]): 4.11; pKd (SHANK1, Q9Y566; [3]): 3.48; pKd (SIPA1L2, Q9P2F8; [3]): below the threshold; pKd (SNTG2, Q9NY99; [3]): 3.73; pKd (SYNJ2BP, P57105; [3]): 5.53; pKd (TJP3_3, O95049; [3]): 3.5

From PMC9482650, “Quantitative fragmentomics allow affinity mapping of interactomes” (Nature Communications, 2022)
